Assay results taken from patent US20200262877A1, “ION CHANNEL-BINDING PEPTIDES AND METHODS OF USE THEREOF” (priority 2017, published 2020).

Assays:
[1] = target: T1, 5HT3a (Homo sapiens, UniProt P46098); assay: Ion channel panel (IonWorks Barracuda): 5HT3a; assay type: cell-based
T1 construct: host or cells: HEK293 or CHO
T1 sequence (P46098 whole entry, looked up): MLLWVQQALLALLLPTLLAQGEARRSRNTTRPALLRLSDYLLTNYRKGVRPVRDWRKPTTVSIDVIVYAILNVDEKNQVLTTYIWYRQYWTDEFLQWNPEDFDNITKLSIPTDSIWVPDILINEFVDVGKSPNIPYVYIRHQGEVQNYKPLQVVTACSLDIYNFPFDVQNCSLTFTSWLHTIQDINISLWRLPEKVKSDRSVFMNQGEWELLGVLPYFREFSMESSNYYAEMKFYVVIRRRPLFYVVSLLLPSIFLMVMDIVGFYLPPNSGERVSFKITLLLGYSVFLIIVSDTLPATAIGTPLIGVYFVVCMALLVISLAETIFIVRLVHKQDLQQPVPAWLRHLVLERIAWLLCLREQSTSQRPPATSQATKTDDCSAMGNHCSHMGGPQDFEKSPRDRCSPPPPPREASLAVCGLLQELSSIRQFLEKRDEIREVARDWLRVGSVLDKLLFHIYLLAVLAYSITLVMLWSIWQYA
Procedure, shortened: (§1)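 Peptides were tested in duplicate at final 20 μM and 200 nM, with concentration set by amino acid analysis, in HEPES-buffered saline. They were applied for at least 5 min to HEK293 or CHO cells transfected with each channel. Currents were expressed as % inhibition, 1-(Ipeptide/Icontrol)×100, or % activation, Ipeptide/Icontrol×100, against a channel-matched reference compound.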

[2] = target: T2, α3β4 (Homo sapiens, UniProt P30926+P32297); assay: Ion channel panel (IonWorks Barracuda): α3β4; assay type: cell-based; conditions: 100% = no change, <100% = inhibition
T2 construct: host or cells: HEK293 or CHO
Procedure, shortened: as §1

[3] = target: T3, α4β2 (Homo sapiens, UniProt P17787+P43681); assay: Ion channel panel (IonWorks Barracuda): α4β2; assay type: cell-based; conditions: 100% = no change, <100% = inhibition
T3 construct: host or cells: HEK293 or CHO
Procedure, shortened: as §1

[4] = target: T4, Cav2.1 (Homo sapiens, UniProt O00555); assay: cell-based; conditions: 100% = no change, <100% = inhibition
T4 construct: host or cells: HEK293 or CHO
Procedure, shortened: as §1

[5] = target: T5, Cav2.2 (Homo sapiens, UniProt Q00975); assay: cell-based; conditions: 100% = no change, <100% = inhibition
T5 construct: host or cells: HEK293 or CHO
Procedure, shortened: as §1

[6] = target: T6, Kv2.1 (Homo sapiens, UniProt Q14721); assay: cell-based; conditions: 100% = no change, <100% = inhibition
T6 construct: host or cells: HEK293 or CHO
Procedure, shortened: as §1

[7] = tested on: GABA; assay: Ion channel panel (IonWorks Barracuda): GABA; assay type: cell-based; conditions: 100% = no change, <100% = inhibition
Procedure, shortened: as §1

[8] = target: Nav1.5 (Homo sapiens, UniProt Q14524); assay: in vitro; conditions: 100% = no change; for Activity of Nav1.5 with peptide, expressed as a percentage of the reference compound: peptide at 0.2 μM; for Activity of Nav1.5 with peptide (percentage of the reference compound): peptide at 20 μM
Nav1.5, sequence (Q14524 whole entry): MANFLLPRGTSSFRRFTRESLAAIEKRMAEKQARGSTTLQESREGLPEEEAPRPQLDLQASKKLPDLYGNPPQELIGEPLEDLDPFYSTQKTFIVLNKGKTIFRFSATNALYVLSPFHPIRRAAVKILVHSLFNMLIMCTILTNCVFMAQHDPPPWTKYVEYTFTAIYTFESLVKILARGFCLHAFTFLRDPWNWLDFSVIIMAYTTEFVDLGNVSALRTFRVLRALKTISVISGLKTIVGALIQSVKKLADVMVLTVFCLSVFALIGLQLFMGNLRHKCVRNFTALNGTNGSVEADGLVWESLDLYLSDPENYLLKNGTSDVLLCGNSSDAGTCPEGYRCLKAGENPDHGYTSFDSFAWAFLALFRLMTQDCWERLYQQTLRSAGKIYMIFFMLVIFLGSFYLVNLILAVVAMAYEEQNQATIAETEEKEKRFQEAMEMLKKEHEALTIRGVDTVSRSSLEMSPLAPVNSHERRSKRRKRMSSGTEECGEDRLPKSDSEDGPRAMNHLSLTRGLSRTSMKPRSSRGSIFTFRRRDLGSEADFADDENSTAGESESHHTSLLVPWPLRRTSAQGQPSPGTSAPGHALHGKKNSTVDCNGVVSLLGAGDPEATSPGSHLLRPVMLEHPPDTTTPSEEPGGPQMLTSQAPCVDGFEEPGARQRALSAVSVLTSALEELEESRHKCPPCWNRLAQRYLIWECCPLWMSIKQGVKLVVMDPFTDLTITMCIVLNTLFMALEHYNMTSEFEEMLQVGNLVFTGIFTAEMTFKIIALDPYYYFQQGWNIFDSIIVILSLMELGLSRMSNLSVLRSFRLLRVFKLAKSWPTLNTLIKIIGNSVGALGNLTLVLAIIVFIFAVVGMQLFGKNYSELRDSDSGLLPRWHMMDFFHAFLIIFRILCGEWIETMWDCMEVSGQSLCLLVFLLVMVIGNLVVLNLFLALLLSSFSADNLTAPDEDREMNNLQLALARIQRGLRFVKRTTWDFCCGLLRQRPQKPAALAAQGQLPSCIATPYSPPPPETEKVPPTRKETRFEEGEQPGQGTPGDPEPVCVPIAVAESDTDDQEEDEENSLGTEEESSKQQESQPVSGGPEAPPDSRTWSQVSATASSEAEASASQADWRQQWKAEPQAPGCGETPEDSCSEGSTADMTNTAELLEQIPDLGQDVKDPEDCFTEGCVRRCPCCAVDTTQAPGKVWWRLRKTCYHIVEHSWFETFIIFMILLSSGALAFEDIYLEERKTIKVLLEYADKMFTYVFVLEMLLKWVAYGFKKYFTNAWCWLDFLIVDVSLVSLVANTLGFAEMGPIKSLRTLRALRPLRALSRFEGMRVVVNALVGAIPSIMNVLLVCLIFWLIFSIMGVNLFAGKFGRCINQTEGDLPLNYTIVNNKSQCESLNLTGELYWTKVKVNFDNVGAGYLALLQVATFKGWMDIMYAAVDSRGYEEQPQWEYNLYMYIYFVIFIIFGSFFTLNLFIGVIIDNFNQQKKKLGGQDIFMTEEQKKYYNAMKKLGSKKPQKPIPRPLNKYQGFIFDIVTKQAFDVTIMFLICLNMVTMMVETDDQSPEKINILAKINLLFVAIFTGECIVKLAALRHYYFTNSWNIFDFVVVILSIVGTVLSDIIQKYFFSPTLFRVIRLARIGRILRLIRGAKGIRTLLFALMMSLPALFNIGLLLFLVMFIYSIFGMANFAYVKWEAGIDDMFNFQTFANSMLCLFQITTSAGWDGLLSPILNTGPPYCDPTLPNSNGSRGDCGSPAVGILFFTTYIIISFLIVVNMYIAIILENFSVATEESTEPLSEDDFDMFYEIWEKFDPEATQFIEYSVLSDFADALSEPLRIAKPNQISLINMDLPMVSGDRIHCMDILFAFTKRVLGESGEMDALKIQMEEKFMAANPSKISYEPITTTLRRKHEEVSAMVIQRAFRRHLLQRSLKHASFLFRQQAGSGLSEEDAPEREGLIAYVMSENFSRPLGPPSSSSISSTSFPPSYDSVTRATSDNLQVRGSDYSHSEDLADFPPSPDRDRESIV
Procedure, shortened: as §1

[9] = target: hERG (Homo sapiens, UniProt Q12809); assay: in vitro; conditions: 100% = no change, <100% = inhibition
Procedure, shortened: as §1

[10] = target: T7, Kir2.1 (Homo sapiens, UniProt P63252); assay: Ion channel panel (IonWorks Barracuda): Kir2.1; assay type: cell-based; conditions: 100% = no change, <100% = inhibition
T7 construct: host or cells: HEK293 or CHO
Procedure, shortened: as §1

[11] = target: T8, Kv1.1 (Homo sapiens, UniProt Q09470); assay: cell-based; assay type: cell-based; conditions: 100% = no change, <100% = inhibition
T8 construct: host or cells: HEK293 or CHO
T8 sequence (Q09470 whole entry): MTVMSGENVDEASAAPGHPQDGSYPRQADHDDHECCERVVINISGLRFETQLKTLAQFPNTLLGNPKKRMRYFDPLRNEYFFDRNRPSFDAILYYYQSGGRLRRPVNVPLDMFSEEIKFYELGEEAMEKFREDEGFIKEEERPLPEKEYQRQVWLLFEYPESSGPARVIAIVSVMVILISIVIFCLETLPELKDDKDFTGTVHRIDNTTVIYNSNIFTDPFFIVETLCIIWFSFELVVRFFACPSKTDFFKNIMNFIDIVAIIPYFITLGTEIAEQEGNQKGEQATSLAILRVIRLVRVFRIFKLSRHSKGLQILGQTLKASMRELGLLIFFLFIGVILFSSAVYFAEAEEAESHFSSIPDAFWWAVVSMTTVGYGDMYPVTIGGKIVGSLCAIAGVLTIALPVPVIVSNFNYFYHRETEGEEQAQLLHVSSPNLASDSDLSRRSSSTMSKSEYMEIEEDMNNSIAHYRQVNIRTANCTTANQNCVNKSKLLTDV
Procedure, shortened: as §1

[12] = target: T9, Kv1.2 (Homo sapiens, UniProt P16389); assay: cell-based; assay type: cell-based; conditions: 100% = no change, <100% = inhibition
T9 construct: host or cells: HEK293 or CHO
T9 sequence (P16389 whole entry): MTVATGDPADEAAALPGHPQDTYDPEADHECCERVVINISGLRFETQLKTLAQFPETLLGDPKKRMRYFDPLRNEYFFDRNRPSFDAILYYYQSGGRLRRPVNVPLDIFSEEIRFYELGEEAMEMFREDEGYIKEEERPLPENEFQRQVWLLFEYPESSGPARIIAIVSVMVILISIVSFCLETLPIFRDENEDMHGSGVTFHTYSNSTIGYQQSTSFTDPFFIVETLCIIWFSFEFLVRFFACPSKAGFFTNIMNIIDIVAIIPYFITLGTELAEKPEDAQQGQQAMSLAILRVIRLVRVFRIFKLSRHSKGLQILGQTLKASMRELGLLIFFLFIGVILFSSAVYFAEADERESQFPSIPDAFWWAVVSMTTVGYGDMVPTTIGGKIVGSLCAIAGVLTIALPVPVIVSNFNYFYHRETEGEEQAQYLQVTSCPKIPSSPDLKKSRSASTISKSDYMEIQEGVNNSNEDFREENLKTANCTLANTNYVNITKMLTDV
Procedure, shortened: as §1

[13] = target: T10, Kv1.3 (Homo sapiens, UniProt P22001); assay: cell-based; assay type: cell-based; conditions: 100% = no change, <100% = inhibition
T10 construct: host or cells: HEK293 or CHO
Procedure, shortened: as §1

[14] = target: T11, Nav1.7 (Homo sapiens, UniProt Q15858); assay: cell-based; assay type: cell-based; conditions: 100% = no change; for Activity of Nav1.7 with peptide, expressed as a percentage of the reference compound: peptide at 0.2 μM; for Activity of Nav1.7 with peptide (percentage of the reference compound): peptide at 20 μM
T11 construct: host or cells: HEK293 or CHO
T11 sequence (Q15858 whole entry): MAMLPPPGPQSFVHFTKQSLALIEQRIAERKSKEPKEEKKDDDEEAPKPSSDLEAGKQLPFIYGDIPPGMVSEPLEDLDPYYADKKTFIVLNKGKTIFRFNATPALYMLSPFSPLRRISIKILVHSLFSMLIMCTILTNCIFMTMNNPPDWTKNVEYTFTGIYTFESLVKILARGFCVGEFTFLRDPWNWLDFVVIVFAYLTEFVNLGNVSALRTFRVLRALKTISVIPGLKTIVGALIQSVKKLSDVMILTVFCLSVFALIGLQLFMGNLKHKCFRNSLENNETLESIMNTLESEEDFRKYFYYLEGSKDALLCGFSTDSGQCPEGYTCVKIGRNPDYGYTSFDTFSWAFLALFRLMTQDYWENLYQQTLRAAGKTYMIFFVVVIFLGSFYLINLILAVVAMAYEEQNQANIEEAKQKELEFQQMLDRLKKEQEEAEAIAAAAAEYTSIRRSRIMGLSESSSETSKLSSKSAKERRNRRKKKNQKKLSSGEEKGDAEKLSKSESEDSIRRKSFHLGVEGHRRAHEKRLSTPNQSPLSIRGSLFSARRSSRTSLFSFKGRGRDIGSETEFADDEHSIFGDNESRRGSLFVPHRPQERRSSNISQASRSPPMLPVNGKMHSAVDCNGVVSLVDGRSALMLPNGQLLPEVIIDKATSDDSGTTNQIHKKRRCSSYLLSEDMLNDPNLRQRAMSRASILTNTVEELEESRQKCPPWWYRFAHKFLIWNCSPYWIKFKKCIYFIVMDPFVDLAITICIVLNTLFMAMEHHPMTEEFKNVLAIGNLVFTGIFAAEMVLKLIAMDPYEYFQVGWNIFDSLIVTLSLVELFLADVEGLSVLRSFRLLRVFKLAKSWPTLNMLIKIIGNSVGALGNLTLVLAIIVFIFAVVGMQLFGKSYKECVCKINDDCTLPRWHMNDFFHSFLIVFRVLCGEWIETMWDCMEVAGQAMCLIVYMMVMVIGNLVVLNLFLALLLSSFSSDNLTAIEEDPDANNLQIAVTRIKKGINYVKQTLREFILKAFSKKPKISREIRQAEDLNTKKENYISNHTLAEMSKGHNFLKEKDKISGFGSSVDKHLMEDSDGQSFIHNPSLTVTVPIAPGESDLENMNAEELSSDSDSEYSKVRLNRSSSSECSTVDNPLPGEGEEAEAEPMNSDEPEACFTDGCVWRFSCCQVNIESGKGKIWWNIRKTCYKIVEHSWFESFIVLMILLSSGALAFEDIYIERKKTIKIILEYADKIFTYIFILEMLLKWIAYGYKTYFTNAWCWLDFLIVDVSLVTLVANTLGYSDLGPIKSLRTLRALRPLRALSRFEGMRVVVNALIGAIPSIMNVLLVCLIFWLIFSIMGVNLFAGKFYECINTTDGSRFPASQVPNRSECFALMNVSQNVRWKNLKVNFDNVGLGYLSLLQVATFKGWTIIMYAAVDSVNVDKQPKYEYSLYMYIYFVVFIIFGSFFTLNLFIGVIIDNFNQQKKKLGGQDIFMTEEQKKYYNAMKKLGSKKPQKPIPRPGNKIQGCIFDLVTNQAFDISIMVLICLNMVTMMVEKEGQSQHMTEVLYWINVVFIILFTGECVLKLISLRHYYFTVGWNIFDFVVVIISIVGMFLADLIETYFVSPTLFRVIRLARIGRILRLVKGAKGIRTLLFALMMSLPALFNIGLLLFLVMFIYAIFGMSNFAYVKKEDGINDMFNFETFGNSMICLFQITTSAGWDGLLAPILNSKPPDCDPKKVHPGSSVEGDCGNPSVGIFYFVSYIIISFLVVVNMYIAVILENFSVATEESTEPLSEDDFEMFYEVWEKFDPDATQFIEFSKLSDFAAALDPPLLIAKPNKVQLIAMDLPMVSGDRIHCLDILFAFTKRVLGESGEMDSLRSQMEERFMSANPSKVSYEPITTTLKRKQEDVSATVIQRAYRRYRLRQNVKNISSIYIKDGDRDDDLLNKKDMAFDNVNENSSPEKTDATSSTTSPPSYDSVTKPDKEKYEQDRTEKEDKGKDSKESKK

[15] = target: T12, NR2A (Homo sapiens, UniProt Q12879); assay: Ion channel panel (IonWorks Barracuda): NR2A; assay type: cell-based; conditions: 100% = no change, <100% = inhibition
T12 construct: host or cells: HEK293 or CHO
Procedure, shortened: as §1

[16] = target: T13, NR2B (Homo sapiens, UniProt Q13224); assay: Ion channel panel (IonWorks Barracuda): NR2B; assay type: cell-based; conditions: 100% = no change, <100% = inhibition
T13 construct: host or cells: HEK293 or CHO
Procedure, shortened: as §1

[17] = target: T14, TRPA1 (Homo sapiens, UniProt O75762); assay: Ion channel panel (IonWorks Barracuda): TRPA1; assay type: cell-based; conditions: 100% = no change, <100% = inhibition
T14 construct: host or cells: HEK293 or CHO
Procedure, shortened: as §1

[18] = target: T15, TRPV1 (Homo sapiens, UniProt Q8NER1); assay: Ion channel panel (IonWorks Barracuda): TRPV1; assay type: cell-based; conditions: 100% = no change, <100% = inhibition
T15 construct: host or cells: HEK293 or CHO
Procedure, shortened: as §1

[19] = first of two Nav1.5 columns (probably TP1)
[20] = second of two Nav1.5 columns (probably TP2)
[21] = first of two Nav1.7 columns (probably TP1)
[22] = second of two Nav1.7 columns (probably TP2)

Substance: 5 (GSGVPINVKCRGSRDCLDPCKKAGMRFGKCINSKCHCTP) [compound 5]
- Activity of 5HT3a with peptide (percentage of the reference compound) [1]: 80%
- Activity of 5HT3a with peptide, expressed as a percentage of the reference compound [1]: 94%
- Activity of a3b4 with peptide, expressed as a percentage of the reference compound ([2]; peptide at 0.2 μM): 104%
- Activity of a3b4 with peptide (percentage of the reference compound) ([2]; peptide at 20 μM): 90%
- Activity of a4b2 with peptide, expressed as a percentage of the reference compound ([3]; peptide at 0.2 μM): 83%
- Activity of a4b2 with peptide (percentage of the reference compound) ([3]; peptide at 20 μM): 93%
- Activity of Cav2.1 with peptide, expressed as a percentage of the reference compound ([4]; peptide at 0.2 μM): 100%
- Activity of Cav2.1 with peptide (percentage of the reference compound) ([4]; peptide at 20 μM): 121%
- Activity of Cav2.2 with peptide, expressed as a percentage of the reference compound ([5]; peptide at 0.2 μM): 94%
- Activity of Cav2.2 with peptide (percentage of the reference compound) ([5]; peptide at 20 μM): 117%
- Activity of Kv2.1 with peptide, expressed as a percentage of the reference compound ([6]; peptide at 0.2 μM): 110%
- Activity of Kv2.1 with peptide (percentage of the reference compound) ([6]; peptide at 20 μM): 109%
- Activity of GABA with peptide, expressed as a percentage of the reference compound ([7]; peptide at 0.2 μM): 109%
- Activity of GABA with peptide (percentage of the reference compound) ([7]; peptide at 20 μM): 114%
- Activity of Nav1.5 with peptide, expressed as a percentage of the reference compound [8, 19]: 107%
- Activity of Nav1.5 with peptide, expressed as a percentage of the reference compound [8, 20]: 107%
- Activity of Nav1.5 with peptide (percentage of the reference compound) [8, 19]: 103%
- Activity of Nav1.5 with peptide (percentage of the reference compound) [8, 20]: 105%
- Activity of hERG with peptide, expressed as a percentage of the reference compound ([9]; peptide at 0.2 μM): 106%
- Activity of hERG with peptide (percentage of the reference compound) ([9]; peptide at 20 μM): 67%
- Activity of Kir2.1 with peptide, expressed as a percentage of the reference compound ([10]; peptide at 0.2 μM): 103%
- Activity of Kir2.1 with peptide (percentage of the reference compound) ([10]; peptide at 20 μM): 86%
- Activity of Kv1.1 with peptide, expressed as a percentage of the reference compound ([11]; peptide at 0.2 μM): 86%
- Activity of Kv1.1 with peptide (percentage of the reference compound) ([11]; peptide at 20 μM): 55%
- Activity of Kv1.2 with peptide, expressed as a percentage of the reference compound ([12]; peptide at 0.2 μM): 89%
- Activity of Kv1.2 with peptide (percentage of the reference compound) ([12]; peptide at 20 μM): 73%
- Activity of Kv1.3 with peptide, expressed as a percentage of the reference compound ([13]; peptide at 0.2 μM): 98%
- Activity of Kv1.3 with peptide (percentage of the reference compound) ([13]; peptide at 20 μM): 28%
- Activity of Nav1.7 with peptide, expressed as a percentage of the reference compound [14, 21]: 98%
- Activity of Nav1.7 with peptide, expressed as a percentage of the reference compound [14, 22]: 109%
- Activity of Nav1.7 with peptide (percentage of the reference compound) [14, 21]: 79%
- Activity of Nav1.7 with peptide (percentage of the reference compound) [14, 22]: 66%
- Activity of NR2A with peptide, expressed as a percentage of the reference compound ([15]; peptide at 0.2 μM): 109%
- Activity of NR2A with peptide (percentage of the reference compound) ([15]; peptide at 20 μM): 86%
- Activity of NR2B with peptide, expressed as a percentage of the reference compound ([16]; peptide at 0.2 μM): 112%
- Activity of NR2B with peptide (percentage of the reference compound) ([16]; peptide at 20 μM): 95%
- Activity of TRPA1 with peptide, expressed as a percentage of the reference compound ([17]; peptide at 0.2 μM): 119%
- Activity of TRPA1 with peptide (percentage of the reference compound) ([17]; peptide at 20 μM): 75%
- Activity of TRPV1 with peptide, expressed as a percentage of the reference compound ([18]; peptide at 0.2 μM): 101%
- Activity of TRPV1 with peptide (percentage of the reference compound) ([18]; peptide at 20 μM): 101%
